According to the supplement of paper PMC7877785:
± gives the uncertainty stated by the source.

Assay: self-splicing fitness, log relative to wild type (ln ratio); higher = more splicing; Tetrahymena group I intron in knt gene, E. coli kanamycin selection, DiMSum; sequences stand for … in CUCUCU…GGAGGGAAAAGUUAUCAGGCAUGCACCUGGUAGCUAGUCUUUAAACCAAUAGAUUGCAUCGGUUUAAAAGGCAAGACCGUCAAAUUGCGGGAAAGGGGUCAACAGCCGUUCAGUACCAAGUCUCAGGGGAAACUUUGAGAUGGCCUUGCAAAGGGUAUGGUAAUAAGCUGACGGACAUGGUCCUAACCACGCAGCCAAGUCCUAAGUCAACAGAUCUUCUGUUGAUAUGGAUGCAGUUCACAGACUAAAUGUCGGUCGGGGAAGAUGUAUUCUUCUCAUAAGAUAUAGUCGGACCUCUCCUUAAUGGGAGCUAGCGGAUGAAGUGAUGCAACACUGGAGCCGCUGGGAACUAAUUUGUAUGCGAAAGUAUAUUGAUUAGUUUUGGAGUACUCGUGGUCG
How it was run: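 Colonies from six replicate transformations of E. coli BL21(DE3) were pooled and amplicon-sequenced on an Illumina HiSeq 2500. The library placed an intron with all eight P1ex-region nucleotides randomised inside the knt kanamycin-resistance gene on pET-22b(+), and cells grew overnight at 37°C or 30°C on LB agar with or without 25 μg/mL kanamycin (plus 100 μg/mL carbenicillin, 50 μM IPTG, 0.2% rhamnose). Fitness is the DiMSum error-weighted combination of wild-type-normalised replicate fold changes, kanamycin versus none.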

Sequence	self-splicing fitness (ln) (30 °C)	self-splicing fitness (ln) (37 °C)
AGGGAGCAAUAUUACGGGCU	-3.05 ± 0.27	-2.49 ± 0.3
AGGGAGCAAUAUUACGGGUC	-4.05 ± 0.3	-3.12 ± 0.22
AGGGAGCAAUAUUACGGUGC	-4.76 ± 0.45	-3.06 ± 0.47
AGGGAGCAAUAUUACGUACC	-2.86 ± 0.33	-1.52 ± 0.29
AGGGAGCAAUAUUACGUCAG	–	-2.97 ± 0.35
AGGGAGCAAUAUUACGUGAU	-3.34 ± 0.25	-2.91 ± 0.26
AGGGAGCAAUAUUACGUGUC	-3.95 ± 0.47	-2.69 ± 0.26
AGGGAGCAAUAUUACGUGUG	-2.78 ± 0.17	-3.07 ± 0.26
AGGGAGCAAUAUUACGUUAU	-3.84 ± 0.34	-2.94 ± 0.25
AGGGAGCAAUAUUACGUUCG	-3.18 ± 0.22	-1.96 ± 0.23
AGGGAGCAAUAUUACGUUCU	-3.19 ± 0.44	–
AGGUAGCAAUAUUACGACCA	0.0772 ± 0.018	0.199 ± 0.038
AGGUAGCAAUAUUACGACGA	-0.363 ± 0.016	-0.00769 ± 0.034
AGGUAGCAAUAUUACGAGCG	-0.808 ± 0.014	-0.435 ± 0.033
AGGUAGCAAUAUUACGAGUG	-2.867 ± 0.019	-1.58 ± 0.034
AGGUAGCAAUAUUACGAUAC	-2.318 ± 0.021	-1.16 ± 0.037
AGGUAGCAAUAUUACGAUGC	-1.62 ± 0.017	-0.828 ± 0.035
AGGUAGCAAUAUUACGCACC	-2.33 ± 0.031	-1.26 ± 0.042
AGGUAGCAAUAUUACGCGAC	-2.971 ± 0.029	-1.8 ± 0.04
AGGUAGCAAUAUUACGCUCG	-0.57 ± 0.017	-0.241 ± 0.036
AGGUAGCAAUAUUACGCUCU	-2.37 ± 0.024	-1.45 ± 0.038
AGGUAGCAAUAUUACGCUUG	-1.541 ± 0.015	-1.04 ± 0.034
AGGUAGCAAUAUUACGGAUA	-2.53 ± 0.025	-1.6 ± 0.036
AGGUAGCAAUAUUACGUAAA	-2.285 ± 0.018	-1.39 ± 0.034

Sequence	self-splicing fitness (ln) (30 °C)	self-splicing fitness (ln) (37 °C)
AGGUAGCAAUAUUACGUAUG	-3.698 ± 0.027	-2.53 ± 0.038
AGGUAGCAAUAUUACGUCCG	-0.127 ± 0.017	0.055 ± 0.036
AGGUAGCAAUAUUACGUCGA	-1.4 ± 0.016	-0.563 ± 0.033
AGGUAGCAAUAUUACGUGAG	-1.02 ± 0.011	-0.588 ± 0.032
AGGUAGCAAUAUUACGUGCG	-0.955 ± 0.014	-0.358 ± 0.033
AGGUAGCAAUAUUACGUGUA	-2.265 ± 0.017	-1.31 ± 0.033
AGGUAGCAAUAUUACGUUAA	-2.881 ± 0.025	-1.91 ± 0.037
AGGUAGCAAUAUUACGUUAG	-3.842 ± 0.029	-2.87 ± 0.042
AGGUAGCAAUAUUACGUUAU	-3.603 ± 0.026	-2.75 ± 0.039
AGGUAGCAAUAUUACGUUGA	-2.893 ± 0.022	-1.61 ± 0.035
AGGUAGCAAUAUUACGUUGU	-3.385 ± 0.02	-1.95 ± 0.035
AGGUAGCAAUAUUACGUUUA	-2.151 ± 0.019	-1.33 ± 0.034
AGUAAGCAAUAUUACGACCC	-1.01 ± 0.47	-0.157 ± 0.35
AGUAAGCAAUAUUACGAGAA	–	-1.21 ± 0.41
AGUAAGCAAUAUUACGAGCA	-0.223 ± 0.1	-0.349 ± 0.11
AGUAAGCAAUAUUACGAGUG	-3.01 ± 0.27	-3.04 ± 0.43
AGUAAGCAAUAUUACGAUGC	-2.58 ± 0.19	-1.67 ± 0.15
AGUAAGCAAUAUUACGCAAA	-2.45 ± 0.35	-1.46 ± 0.25
AGUAAGCAAUAUUACGCCAG	-3.63 ± 0.33	-1.58 ± 0.29
AGUAAGCAAUAUUACGCCCU	-0.35 ± 0.17	-0.62 ± 0.16
AGUAAGCAAUAUUACGGAUA	-2.85 ± 0.28	-1.69 ± 0.21
AGUAAGCAAUAUUACGGGCA	-0.89 ± 0.15	-0.468 ± 0.19
AGUAAGCAAUAUUACGGUGC	-4.4 ± 0.46	-1.37 ± 0.17
AGUAAGCAAUAUUACGUAUU	-2.89 ± 0.12	-3.05 ± 0.19

Sequence	self-splicing fitness (ln) (30 °C)	self-splicing fitness (ln) (37 °C)
AGUAAGCAAUAUUACGUCAU	-2.97 ± 0.23	-2.12 ± 0.19
AGUAAGCAAUAUUACGUGAA	-3.24 ± 0.15	-1.68 ± 0.13
AGUAAGCAAUAUUACGUGUA	-2.16 ± 0.12	-1.8 ± 0.13
AGUAAGCAAUAUUACGUUCC	-1.85 ± 0.16	-0.345 ± 0.13
AGUCAGCAAUAUUACGAAUG	-1.62 ± 0.09	-0.853 ± 0.11
AGUCAGCAAUAUUACGAGGC	-2.81 ± 0.31	-0.606 ± 0.31
AGUCAGCAAUAUUACGAUAG	-1.12 ± 0.14	-2.32 ± 0.23
AGUCAGCAAUAUUACGAUGC	-1.04 ± 0.097	-0.00334 ± 0.11
AGUCAGCAAUAUUACGCAAA	-1.62 ± 0.11	-1.01 ± 0.15
AGUCAGCAAUAUUACGCAAG	-2.69 ± 0.26	-1.28 ± 0.29
AGUCAGCAAUAUUACGCGCU	-3.02 ± 0.14	-1.86 ± 0.21
AGUCAGCAAUAUUACGCUAU	-0.623 ± 0.1	-0.137 ± 0.11
AGUCAGCAAUAUUACGCUGG	-3.87 ± 0.23	-2.71 ± 0.23
AGUCAGCAAUAUUACGCUUA	-0.891 ± 0.12	0.278 ± 0.14
AGUCAGCAAUAUUACGCUUC	-2.35 ± 0.2	-1.79 ± 0.21
AGUCAGCAAUAUUACGGACU	-2.86 ± 0.27	-2.27 ± 0.29
AGUCAGCAAUAUUACGGAUG	-1.36 ± 0.054	0.106 ± 0.069
AGUCAGCAAUAUUACGGGUC	-1.27 ± 0.11	-1.43 ± 0.15
AGUCAGCAAUAUUACGGUAG	-3.46 ± 0.15	-2.76 ± 0.21
AGUCAGCAAUAUUACGUAGC	-2.97 ± 0.13	-0.778 ± 0.097
AGUCAGCAAUAUUACGUCCG	-2.14 ± 0.12	-1.29 ± 0.18
AGUCAGCAAUAUUACGUUAU	-1.25 ± 0.099	-0.0312 ± 0.11
AGUCAGCAAUAUUACGUUCC	-1.13 ± 0.1	-0.187 ± 0.12
AGUGAGCAAUAUUACGAAUG	-3.4 ± 0.36	-1.58 ± 0.3

Sequence	self-splicing fitness (ln) (30 °C)	self-splicing fitness (ln) (37 °C)
AGUGAGCAAUAUUACGAGAG	-2.1 ± 0.26	-2.36 ± 0.29
AGUGAGCAAUAUUACGAGGA	-2.48 ± 0.32	-3.09 ± 0.35
AGUGAGCAAUAUUACGAGGG	-3.75 ± 0.24	-2.13 ± 0.35
AGUGAGCAAUAUUACGAUAC	-3.02 ± 0.22	-2.47 ± 0.34
AGUGAGCAAUAUUACGAUCA	-1.64 ± 0.13	-0.675 ± 0.16
AGUGAGCAAUAUUACGAUGA	-4.11 ± 0.39	-2.24 ± 0.3
AGUGAGCAAUAUUACGAUUC	-2.97 ± 0.28	-1.27 ± 0.33
AGUGAGCAAUAUUACGCAAG	-2.68 ± 0.22	-2.98 ± 0.26
AGUGAGCAAUAUUACGCAGG	–	-2.65 ± 0.48
AGUGAGCAAUAUUACGCUCA	–	-2.13 ± 0.25
AGUGAGCAAUAUUACGGCAA	-2.12 ± 0.21	-0.889 ± 0.2
AGUGAGCAAUAUUACGGGCG	-1.04 ± 0.19	-0.922 ± 0.27
AGUGAGCAAUAUUACGGUCA	-2.16 ± 0.19	-0.354 ± 0.19
AGUGAGCAAUAUUACGUCCA	-2.89 ± 0.36	-1 ± 0.27
AGUGAGCAAUAUUACGUCUG	-2.84 ± 0.34	-2.07 ± 0.38
AGUGAGCAAUAUUACGUUAA	-2.56 ± 0.31	-1.57 ± 0.25
AGUGAGCAAUAUUACGUUAU	-3.13 ± 0.17	-3.08 ± 0.27
AGUGAGCAAUAUUACGUUGU	-4.07 ± 0.19	-1.78 ± 0.14
AGUUAGCAAUAUUACGAAGC	-3.59 ± 0.48	-1.98 ± 0.48
AGUUAGCAAUAUUACGAAGU	-2.91 ± 0.17	-1.47 ± 0.15
AGUUAGCAAUAUUACGACGA	-0.101 ± 0.18	-0.368 ± 0.14
AGUUAGCAAUAUUACGAGCG	-0.12 ± 0.1	0.237 ± 0.11
AGUUAGCAAUAUUACGAGCU	-1.97 ± 0.15	-0.796 ± 0.17
AGUUAGCAAUAUUACGAGGA	-2.32 ± 0.26	-2.43 ± 0.25
